Results reported in patent US20210047420A1 (TUSK THERAPEUTICS, published 2021).
Substitutions are numbered along the chain they refer to. Where two headings read alike, the source gives them in different places. Blank lines part the entries; values can stand above or below the binder they belong to.

Experiments:
[1] = molecular target: T1, recombinant human CD25 his tagged (human, UniProt P01589 22-240, limits assumed); assay: Octet sequential binding, rhCD25 his tagged on Ni-NTA biosensors, first antibody
T1 construct: also called rhCD25 his tagged; rhCD25; not shown: his tag
T1 sequence: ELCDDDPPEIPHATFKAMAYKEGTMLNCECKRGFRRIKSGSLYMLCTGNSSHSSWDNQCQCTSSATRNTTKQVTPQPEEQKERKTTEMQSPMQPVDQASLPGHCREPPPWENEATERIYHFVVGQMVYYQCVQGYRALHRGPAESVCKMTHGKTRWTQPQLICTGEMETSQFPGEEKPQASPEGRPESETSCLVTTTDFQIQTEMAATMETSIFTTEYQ

[2] = molecular target: T2, recombinant human CD25 his tagged (UniProt P01589 22-240); assay: SPR (Biacore 2000)
T2 chain: T1 sequence

[3] = molecular target: T2, recombinant human CD25 his tagged; assay: SPR (Biacore 2000)
[4] = molecular target: T2, recombinant human CD25 his tagged; assay: SPR (Biacore 2000)
[5] = molecular target: T2, recombinant human CD25 his tagged; assay: SPR (Biacore 2000)

binding result [1]: binds
Kd [2]: 7.6 nM
B1: Antibody 10 (antibody, human IgG1, V domains shown)
VH: QVQLVESGGGVVQPGGSLRLSCAVSGFSLTSYGIQWVRQAPGKGLEWVSVIWAGGSTNYNSALMSRFTISKDNSKSTLYLQMNSLRAEDTAVYYCARAYGYDGSWLAYWGQGTLVTVSS
VL: QIVLTQSPATLSLSPGERATLSCRASSSVSYMHWYQQKPGQAPRPLIFATSNLASGIPARFSGSGSGTDYTLTISSLEPEDFAVYYCQQWSSNPPTFGGGTKLEIK
notes: also called Ab10; Antibody 10-hIgG1

Kd [3]: 8.8 nM
B2: Antibody 9 (antibody, V domains shown)
VH: B1 VH
VL: B1 VL with Q1E, Y70F

Kd [3]: 2.1 nM
B3: Antibody 7 (antibody, V domains shown)
VH: QVQLQESGPGLVKPSETLSLTCTVSGFSLTSYGIQWVRQPPGKGLEWIGVIWAGGSTNYNSALMSRVTISKDNSKSQFSLKLSSVTAADTAVYYCARAYGYDGSWLAYWGQGTLVTVSS
VL: DIQMTQSPSSLSASVGDRVTITCRASSSVSYMHWYQQKPGKAPKPLIFATSNLASGVPSRFSGSGSGTDYTLTISSLQPEDFATYYCQQWSSNPPTFGGGTKLEIK

Kd [4]: 1.1 nM
B4: Antibody 4 (antibody, V domains shown)
VH: B3 VH with V37I, S76N
VL: B3 VL with D1Q, M4L, A42S

Kd [4]: 2.9 nM
B5: Antibody 6 (antibody, V domains shown)
VH: B3 VH
VL: B1 VL

Kd [5]: 1.2 nM
B6: Antibody 1 (antibody, V domains shown)
VH: B3 VH with V37I, S76N
VL: B1 VL with Q1E, Y70F

Kd [2]: 10.2 nM
B7: Antibody 11 (antibody, V domains shown)
VH: B1 VH
VL: B3 VL

Kd [3]: 1.7 nM
B8: Antibody 8 (antibody, V domains shown)
VH: B3 VH
VL: B3 VL with D1Q, M4L, A42S

Kd [5]: 0.3 nM
B9: Antibody 3 (antibody, V domains shown)
VH: B3 VH with V37I, S76N
VL: B3 VL

Kd [4]: 2.6 nM
B10: Antibody 5 (antibody, V domains shown)
VH: B3 VH
VL: B1 VL with Q1E, Y70F

Kd [5]: 4.8 nM
B11: Antibody 2 (antibody, V domains shown)
VH: B3 VH with V37I, S76N
VL: B1 VL

Kd [2]: 6.9 nM
B12: Antibody 12 (antibody, V domains shown)
VH: B1 VH
VL: B3 VL with D1Q, M4L, A42S
